Source: the DeepSol protein solubility set

Assay: soluble on expression in E. coli; label from the status in PepcDB or PDB records

Row | Sequence | soluble on expression in E. coli
1 | MGSDKIHHHHHHMTSKLTEVSTPPQAAMPKSTLANEQENKVFIIGLPRTGTTSVSVALLEQGLTVAHQAFTKQAFMLADAVSDAPCFSDYQQLDKLFPNAKFVYLDRPLDKWLPSMQMLLGRMLVHLDKDKGRFHPVMKRSFNHCFDIWQVEDVFDEAHLTACYQRHQQQVMSYFAGRDDFISIDISVTGSLAKLLQFIDLAKPDTAEFRQLQYPQLQSQPQNFPQLNFPQLNFPQLNTGRNVASWDEYKHPNKISANASGPDKRKFFDYRL | not soluble
2 | MGSDKIHHHHHHMGKSKRKILNWKQYNQALVNRGSVTFWLDKSAINAWHCKAHHGGRGRGFQFSDTAIETALMLKGVFKLSLRATEGFINSLFRLMDVPLAAPDYTCISKRAKTVEVKYRNPCRGPVTHLVVDSTGLKVYGEGEWKTRKHGKERRRTWRKLHLAIDADTHDVVSAEVSLVNVADNEVLPTMLNPLRRKVNQVSADGAYDTKECHKLLRHKGAKPTIPPRSNAGYWEDGHPRNEAVEALKSGTLKQWKDDNDYHQRSLSETAMYRYKQLISSKLSLRDYNAQVGEALAGVKAMNKVIGLGMPVRQTTA | not soluble
3 | MMINFEAIIGIEVHVVLNTATKMFSPAPNQAQNATPNQFINAIDLGLPGTMPQVNEQAVQKALILADALNMQRVQPVLVFDRKHYFYQDLPKGFQITQQNFPIAQNGYVEIVENNKAQRIIIERFHLEEDTAKQHFVDGQILLDFNRCGAPLIEVVTAPVIKSAKQSKAYLQKLRQILIVNNISNAKLEDGSMRSDCNVSVRLKGQTAFGTKVEIKNINSLNNVEKAIDLEIARQVKALIKGEPVQQVTLTYDDKTNTNVFMRKKDNSVDYRYFIEPNIMSSNIDELLQKPNKAFNLTEFFTKLKEAGVNEQLNQLVVDDLTLFNAYTKINSVINSPQDTIRWLCIELMGQLNKLQKPLKDKTIDHLIILIQMVQKGTVNQKQAKQLIELMLDNGQDPQSLAKLHNLEQITDEKQLTQIIQQIFKENEGEILKNLDRVERIQKLIIGQVMQRTHNRANPQQVFIIVEKLLHDFSERAS | not soluble
4 | MKAVAINGYGTVGKRVADAIAQQDDMKVIGVSKTRPDFEARMALKKGYDLYVAIPERVKLFEKAGIEVAGTVDDMLDEADIVIDCTPEGIGAKNLKMYKEKGIKAIFQGGEKHEDIGLSFNSLSNYEESYGKDYTRVVSCNTTGLCRTLKPLHDSFGIKKVRAVIVRRGADPAQVSKGPINAIIPNPPKLPSHHGPDVKTVLDINIDTMAVIVPTTLMHQHNVMVEVEETPTVDDIIDVFEDTPRVILISAEDGLTSTAEIMEYAKELGRSRNDLFEIPVWRESITVVDNEIYYMQAVHQESDIVPENVDAVRAILEMEEDKYKSINKTNKAMNILQ | soluble
5 | RGIAVYVEHHNGNIHPVTYELIGKAREMASKIKQPVYCVFVGKDIKDKCSNLISYGVDEVFVYDEDEFKDFRIEPYSKAIENFIDKIKPTIVLVGGTTLGRSLAPRLAARFRTGLTADCTILDIQSNTDLDQIRPAFGGNIMAHINTPNNRPQFATVRYKIFSAPEKIENTTGKITLCKVEKKELKSKIKVLS | not soluble
6 | MSLEVNVEGKLEAMQAVVGAKAVPFAGTQAEPIQIAMIYPSADTSDFWARNYIAMTKRLEELGIQFETTEFASRQIEHSLQSTYANQVVQDADLYDFVIFGPSELAIQADNIDKMAASEGFSTFVWAFHTPLKDLKNQPDGWFDFSSAAGALTMCDYMLGRLGNDVTMAMNRGIPGITDDQRSGDFKACVEEKGNWTTIYEHYGEYQREGGFEGTSLILQAYPEATVIHNANTAMAMGSVEAQISVGKEKEVFSTGWGGTGLELDAIRRGELDATPMRMGDDVGAATAEAIKAHLEGRSDELPFVFLGRITVAHDQMSAEEIDALEAEAFRFSGVGALEREGHHHHHH | not soluble
7 | MSAPWETLLDWWFGTSSDAAEVVAQRNGLWFGKNVCQDADAGGRFGDLVNQALDGGLQEWTAEADGWLALILLLDQLPRMIYRDTPRAYAGDARAQRVVREGLEKGFDRQLPPVRRVFAYLVLEHAEDLPSQERAVACFRDLRDQVGGSVRKPFDDFYDYAERHHAVVARFGRFPHRNAILGRPSSEEETAFLREPGSRF | not soluble
